Source: ChEMBL document CHEMBL1143079, “Designing better coumarin-based fluorogenic substrates for PTP1B” (Bioorg Med Chem Lett, 2008)

Legend:
[1] = substrate: COC(=O)Cc1cc(=O)oc2cc(OP(=O)(O)O)ccc12
[2] = substrate: COC(=O)[C@H](Cc1ccc(OP(=O)(O)O)cc1)NC(=O)Cc1cc(=O)oc2cc(OP(=O)(O)O)ccc12
[3] = substrate: NC(=O)Cc1cc(=O)oc2cc(OP(=O)(O)O)ccc12
[4] = substrate: NC(=O)[C@H](Cc1ccc(OP(=O)(O)O)cc1)NC(=O)Cc1cc(=O)oc2cc(OP(=O)(O)O)ccc12
[5] = substrate: O=C(Cc1cc(=O)oc2cc(OP(=O)(O)O)ccc12)NCCc1ccc(O)cc1
[6] = substrate: O=C(Cc1cc(=O)oc2cc(OP(=O)(O)O)ccc12)NCCc1ccc(OP(=O)(O)O)cc1
[7] = substrate: O=C(Cc1cc(=O)oc2cc(OP(=O)(O)O)ccc12)NCc1ccc(OP(=O)(O)O)cc1
[8] = substrate: O=C(Cc1cc(=O)oc2cc(OP(=O)(O)O)ccc12)OCc1ccccc1
[9] = substrate: O=C(O)CCNC(=O)Cc1cc(=O)oc2cc(OP(=O)(O)O)ccc12

B1: Tyrosine-protein phosphatase non-receptor type 1 (Homo sapiens), P18031 (protein)
chain: MEMEKEFEQIDKSGSWAAIYQDIRHEASDFPCRVAKLPKNKNRNRYRDVSPFDHSRIKLHQEDNDYINASLIKMEEAQRSYILTQGPLPNTCGHFWEMVWEQKSRGVVMLNRVMEKGSLKCAQYWPQKEEKEMIFEDTNLKLTLISEDIKSYYTVRQLELENLTTQETREILHFHYTTWPDFGVPESPASFLNFLFKVRESGSLSPEHGPVVVHCSAGIGRSGTFCLADTCLLLMDKRKDPSSVDIKKVLLEMRKFRMGLIQTADQLRFSYLAVIEGAKFIMGDSSVQDQWKELSHEDLEPPPEHIPPPPRPPKRILEPHNGKCREFFPNHQWVKEETQEDKDCPIKEEKGSPLNAAPYGIESMSQDTEVRSRVVGGSLRGAQAASPAKGEPSLPEKDEDHALSYWKPFLVNMCVATVLTAGAYLCYRFLFNSNT
Q: Which results are given for B1?
A: Km [1]: 147 µM; kcat [1]: 8.2 s⁻¹; Km [2]: 82 µM; kcat [2]: 3.4 s⁻¹; Km [3]: 224 µM; kcat [3]: 5 s⁻¹; Km [4]: 149 µM; kcat [4]: 3.2 s⁻¹; kcat [5]: 4.8 s⁻¹; Km [6]: 38 µM; kcat [6]: 7.1 s⁻¹; Km [7]: 25 µM; kcat [7]: 5.2 s⁻¹; Km [8]: 36 µM; kcat [8]: 10.5 s⁻¹; Km [9]: 111 µM; kcat [9]: 5.8 s⁻¹
